Where a chain is given by its changes, count along the chain named.

The text below walks through data of patent publication USRE49099 (Bayer, dated 2022).

B1: Hu1573-12 (antibody, V domains shown)
VH: EVQLVESGGGLVQPGGSLRLSCAASGFTFSNYYLNWVRQAPGKGLEWVADIRLKSNNYEKHYAESVKGRFTISRDDSKNSVYLQMNSLKTEDTAVYYCIREGDYFDYWGQGTTVTVSS
VL: DIVMTQTPLSLSVTPGQPASISCRASESVDSFGATFMHWYLQKPGQPPQLLIYLASNLESGVPDRFSGSGSGTDFTLKISRVEAEDVGVYYCQQNNEDPYTFGQGTKLEIKR
notes: Humanized IgG, human gamma 1 / kappa constant regions by vectors pCP-hCg1 and pCP-hck; also called H1573VH.1E + H1573Vk.2
B2: Hu1573-15 (antibody, V domains shown)
VH: B1 VH with N79S
VL: B1 VL
notes: Humanized IgG, human gamma 1 / kappa constant regions by vectors pCP-hCg1 and pCP-hck; also called H1573VH.1F + H1573Vk.2
B3: Hu1573-3 (antibody, V domains shown)
VH: B1 VH with A49G
VL: B1 VL
notes: Humanized IgG, human gamma 1 / kappa constant regions by vectors pCP-hCg1 and pCP-hck; also called H1573VH.1B + H1573Vk.2
B4: Hu1573-4 (antibody, V domains shown)
VH: B1 VH with A49G
VL: B1 VL with M4L
notes: Humanized IgG, human gamma 1 / kappa constant regions by vectors pCP-hCg1 and pCP-hck; also called H1573VH.1B + H1573Vk.2A
B5: Hu1573-6 (antibody, V domains shown)
VH: B1 VH with V81L
VL: B1 VL
notes: Humanized IgG, human gamma 1 / kappa constant regions by vectors pCP-hCg1 and pCP-hck; also called H1573VH.1C + H1573Vk.2
B6: Hu1573-13 (antibody, V domains shown)
VH: B1 VH
VL: B1 VL with M4L
notes: Humanized IgG, human gamma 1 / kappa constant regions by vectors pCP-hCg1 and pCP-hck; also called H1573VH.1E + H1573Vk.2A
B7: Hu1573-11 (antibody, V domains shown)
VH: B1 VH with A49G, N79S, V81L
VL: B1 VL with G72R
notes: Humanized IgG, human gamma 1 / kappa constant regions by vectors pCP-hCg1 and pCP-hck; also called H1573VH.1D + H1573Vk.2B
B8: Hu1573-14 (antibody, V domains shown)
VH: B1 VH
VL: B1 VL with G72R
notes: Humanized IgG, human gamma 1 / kappa constant regions by vectors pCP-hCg1 and pCP-hck; also called H1573VH.1E + H1573Vk.2B
B9: Hu1573-7 (antibody, V domains shown)
VH: B1 VH with V81L
VL: B1 VL with M4L
notes: Humanized IgG, human gamma 1 / kappa constant regions by vectors pCP-hCg1 and pCP-hck; also called H1573VH.1C + H1573Vk.2A
B10: Hu1573-9 (antibody, V domains shown)
VH: B1 VH with A49G, N79S, V81L
VL: B1 VL
notes: Humanized IgG, human gamma 1 / kappa constant regions by vectors pCP-hCg1 and pCP-hck; also called H1573VH.1D + H1573Vk.2
B11: 1573 Chimeric (antibody, V domains shown)
VH: EVKLEESGGGLVQPGGSMKLSCVASGFTFSNYYLNWVRQSPEKGLEWVADIRLKSNNYEKHYAESVKGRFTISRDDSKSSVYLQMNNLRAEDTGIYYCIREGDYFDYWGQGTTLTVSS
VL: NIVLTQSPASLAVSLGQRATISCRASESVDSFGATFMHWYQQKPGQPPKLLIYLASNLESGVPARFSGSGSRTDFTLTIDPVEADDAATYYCQQNNEDPYTFGGGTKLEIKR
notes: IgG; also called chimera 1573; 1573VH (chimeric) + 1573Vk (chimeric)
B12: 1573 mouse (antibody, V domains shown)
VH: B11 VH
VL: B11 VL
notes: Parental murine monoclonal antibody; also called mouse aPC monoclonal antibody 1573; HAPC1573

For one assay, the target named is T1, human activated protein C (human, UniProt P04070 43-197; P04070 212-461).
T1 construct: also called human aPC; human APC
The experiment in a line: ELISA, coated antigen.
For the molecule B1, the EC50 – broadly, the concentration giving half of the maximal effect – was 0.339 nM.

Consider B2, for which a half-maximal response (EC50) required 0.288 nM. This EC50 and that of the molecule before are within 1.5-fold of each other.

For the molecule B3, the EC50 was 0.592 nM. Compared with the last molecule, the EC50 is about 2.1-fold higher.

The molecule B4 showed an EC50 of 0.583 nM.

As for B5, the half-maximal effective concentration (EC50) is 0.274 nM.

For the molecule B6, the EC50 was 0.236 nM.

Regarding B7, a half-maximal response (EC50) required 0.687 nM.

As for B8, the EC50 is 0.225 nM.

Turning to B9, the EC50 is 0.445 nM.

Molecule B10 had an EC50 of 0.313 nM.

Take B11: the EC50 is 0.334 nM.

A further assay concerns the target T2, cyno activated protein C (cyno (monkey)).
T2 construct: also called cyno aPC; cyno APC
Kind of assay: ELISA, coated antigen. In general terms: In an ELISA, binding on a coated surface is turned into a signal by an enzyme label.
The molecule B1 registered an EC50 of 0.642 nM. In other words, the sub-nanomolar range.

The molecule B2 showed an EC50 of 0.889 nM.

The molecule B3 gave an EC50 of 0.872 nM.

As to B4, the response was half-maximal at 0.904 nM (EC50). The EC50 values of the last two molecules are within 1.5-fold of each other.

B5 displayed an EC50 of 0.9 nM. The EC50 values of the last two molecules are within 1.5-fold of each other.

B6: the EC50 is 0.804 nM. The EC50 values of the last two molecules are within 1.5-fold of each other.

For B7, the response was half-maximal at 1.47 nM (EC50).

Consider B8, for which the response was half-maximal at 0.984 nM (EC50).

Consider B9, for which a half-maximal response (EC50) required 0.853 nM. This EC50 and that of the molecule before are within 1.5-fold of each other.

B10 had an EC50 of 0.986 nM.

B11 gave an EC50 of 0.83 nM. The EC50 values of the last two molecules are within 1.5-fold of each other.

The next assay deals with T3, human Protein C (human, UniProt P04070 43-461).
T3 construct: Zymogen used as negative control in the ELISA; also called human PC; hPC
The experiment in a line: ELISA, coated antigen.
Consider B1, for which the binding result is “no binding (tested: 20 nM)”.

For B2, the binding result was “no binding (tested: 20 nM)”.

Regarding B3, the binding result is “no binding (tested: 20 nM)”.

For the molecule B4, the binding result was “no binding (tested: 20 nM)”.

Take B5: the binding result is “no binding (tested: 20 nM)”.

For B6, the binding result is on record as “no binding (tested: 20 nM)”.

As to B7, the binding result is reported as “no binding (tested: 20 nM)”.

Turning to B8, the binding result is “no binding (tested: 20 nM)”.

Turning to B9, the binding result was “no binding (tested: 20 nM)”.

As to B10, the binding result was “no binding (tested: 20 nM)”.

For the molecule B11, the binding result was “no binding (tested: 20 nM)”.

Another assay addresses T1, human activated protein C. The experiment in a line: SPR (Biacore), 1:1 binding model. (In SPR one partner is held on a chip, and binding of the other changes the refractive index at the surface.)
For B1, the Kd (as a rule, a measure of binding affinity in units of concentration) is 6.03 nM; the koff (in general, the rate constant with which the complex falls apart) was 0.00844 s⁻¹; the kon (usually a measure of how fast the partners come together) was 1.4e+06 M⁻¹ s⁻¹.

B2 came in with a Kd of 6.15 nM, a koff of 0.00845 s⁻¹ and a kon of 1.37e+06 M⁻¹ s⁻¹.

As to B3, the Kd amounted to 5.7 nM, the koff came out at 0.00818 s⁻¹ and the kon is 1.44e+06 M⁻¹ s⁻¹.

B4 had a Kd of 5.1 nM, a koff of 0.00772 s⁻¹ and a kon of 1.52e+06 M⁻¹ s⁻¹.

As to B5, binding was characterised by a dissociation constant (Kd) of 5.94 nM, the koff was found to be 0.00848 s⁻¹ and the kon amounted to 1.43e+06 M⁻¹ s⁻¹.

B6 had a Kd of 4.69 nM, a koff of 0.00655 s⁻¹ and a kon of 1.4e+06 M⁻¹ s⁻¹.

On to B7, for which the affinity, expressed as Kd, was 6.49 nM; the koff was determined as 0.00896 s⁻¹; the kon was 1.38e+06 M⁻¹ s⁻¹.

Regarding B8, the Kd amounted to 6.13 nM, the koff is 0.00856 s⁻¹ and the kon is 1.4e+06 M⁻¹ s⁻¹.

In turn, B9 had a Kd of 6.33 nM, a koff of 0.00857 s⁻¹ and an on-rate constant (kon) of 1.36e+06 M⁻¹ s⁻¹.

For B10, the Kd worked out at 5.63 nM, the koff turned out to be 0.00815 s⁻¹ and the kon was found to be 1.45e+06 M⁻¹ s⁻¹.

Take B11: the Kd is 3.49 nM, the koff came to 0.00811 s⁻¹ and the association rate constant (kon) came to 2.32e+06 M⁻¹ s⁻¹.

The molecule B12 displayed a Kd of 5.49 nM, a koff of 0.0052 s⁻¹ and a kon of 948000 M⁻¹ s⁻¹.

The target of another assay is T2, cyno activated protein C. The experiment in a line: SPR (Biacore), 1:1 binding model.
Molecule B1 registered a Kd of 16.1 nM, a koff of 0.0054 s⁻¹ and an on-rate (kon) of 337000 M⁻¹ s⁻¹.

In the case of B2, binding was characterised by a dissociation constant (Kd) of 20.2 nM, the koff turned out to be 0.00452 s⁻¹ and the kon came to 225000 M⁻¹ s⁻¹.

In turn, B3 returned a Kd of 14.2 nM, a koff of 0.0105 s⁻¹ and a kon of 743000 M⁻¹ s⁻¹.

In turn, B4 returned a Kd of 14.2 nM, a koff of 0.0105 s⁻¹ and a kon of 743000 M⁻¹ s⁻¹.

The molecule B5 had an equilibrium dissociation constant (Kd) of 11.3 nM, a koff of 0.00707 s⁻¹ and a kon of 627000 M⁻¹ s⁻¹.

Molecule B6 gave a Kd of 15 nM, a koff of 0.00343 s⁻¹ and an association rate constant (kon) of 229000 M⁻¹ s⁻¹.

B7 gave a Kd of 15.6 nM, a koff of 0.0042 s⁻¹ and a kon of 269000 M⁻¹ s⁻¹.

With B8, binding was put at a Kd of 17.6 nM, the koff was determined as 0.00524 s⁻¹ and the kon amounted to 299000 M⁻¹ s⁻¹.

For B9, binding was characterised by a dissociation constant (Kd) of 18.5 nM, the koff was found to be 0.00471 s⁻¹ and the kon was determined as 255000 M⁻¹ s⁻¹.

On to B10, for which the dissociation constant (Kd) was 15.2 nM, the koff amounted to 0.00724 s⁻¹ and the on-rate constant (kon) was 475000 M⁻¹ s⁻¹.

The molecule B11 came in with a Kd of 13.8 nM, a koff of 0.00766 s⁻¹ and a kon of 555000 M⁻¹ s⁻¹.

As to B12, the affinity, expressed as Kd, was 21.1 nM; the koff is 0.00725 s⁻¹; the kon was 344000 M⁻¹ s⁻¹.
